Results taken from paper PMC4355285.
Where two headings read alike, the source gives them in different places.

What was measured:
[1] = target: human CCL18 (human) (UniProt P55774); assay: SAXS
[2] = target: human CCL18 (human) (UniProt P55774); assay: SAXS; remark: listed apart in the source

percent of the population as dimer [1]: 32%
percent of the population as monomer [1]: 65%
percent of the population as tetramer [1]: 3%
percent of the population as dimer [2]: 28%
percent of the population as hexamer [2]: 24%
percent of the population as monomer [2]: 48%
Substance: human CCL18 (from UniProt P55774 21-89) (natural protein)
